From publication PMC8762332
One block for each molecule: values may come before it.

What was measured:
[1] = molecular target: 40S ribosomal subunit in ribosome complexes (40S/PIC, monosomes, polysomes), marked by Rps2 (S. cerevisiae (endogenous in yeast)) (UniProt P25443); assay: co-sedimentation; yeast cultures crosslinked with 2% formaldehyde for 60 min on ice before lysis, 7.5–30% sucrose gradients (41,000 rpm, 5 h, SW-41), 0.63 ml fractions up to the 40S peak analysed by western blotting
[2] = molecular target: 40S ribosomal subunit in ribosome complexes (40S/PIC, monosomes, polysomes), marked by Rps2 (S. cerevisiae (endogenous in yeast)) (UniProt P25443); assay: co-sedimentation; lysates of cycloheximide-treated yeast crosslinked with 1% formaldehyde (30 min on ice, quenched with 0.1 M glycine), 5–45% sucrose gradients, 10 fractions of 1 ml, western blotting of fractions (anti-His for eIF4B, Rps2, eIF4A, eIF4G)

Chain of UniProt P25443 (P25443 whole entry, looked up, tested part not stated, one chain of several): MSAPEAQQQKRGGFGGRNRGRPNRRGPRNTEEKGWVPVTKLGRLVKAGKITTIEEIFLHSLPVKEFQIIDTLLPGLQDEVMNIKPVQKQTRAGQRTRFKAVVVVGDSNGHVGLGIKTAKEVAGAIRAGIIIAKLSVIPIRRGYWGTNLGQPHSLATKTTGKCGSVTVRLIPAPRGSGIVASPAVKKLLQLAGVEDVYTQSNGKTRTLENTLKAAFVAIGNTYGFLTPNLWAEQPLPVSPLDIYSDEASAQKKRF

percent reduction of eIF4B in Rps2-containing fractions against WT [1]: 93% | percent of the protein in fractions that lack 40S subunits and ribosomes [2]: 80%
Molecule: yeast eIF4B lacking the N-terminal domain, C-terminal hexahistidine tag (domain or fragment)

percent of the protein in Rps2/40S subunit-containing fractions [2]: 55%
B1: yeast eukaryotic initiation factor 4B, wild type, C-terminal hexahistidine tag (natural protein)
chain: MAPPKKTVKKMDLTSFLNDDTFGSSWAEEDVDLNKITIPIETANANTIPLSELAHAKNNSNNTRSGGFGGSFGGRSRLDPALGGGSSDRREEYPVPDAPPYRAVINNIPWDITPEGVQAWVEDGLVKPEAVEEVVLPKNLRDPTRLKGNAFVTLKERADLVAVLKFNGTKLNERTVYVSVAAPRRGGGADVDWSSARGSNFQGDGREDAPDLDWGAARGSNFRGPRREREEVDIDWTAARGSNFQGSSRPPRREREEVDIDWSAARGSNFQGSSRPPRREREEPDIDWSAARGSNFQSSSRPPRREREEPDIDWSAARGSNFQSSSRPPRREREKEEPALDWGAARGAQFGKPQQTKNTYKDRSLTNKKTTDEQPKIQKSVYDVLRTEDDDEDEEAEKQNGDAKENKVDAAVEKLQDKTAQLTVEDGDNWEVVGKK
